Experimental data from article PMC4857094.

target: circularly permutated RBD of PKN1 (PKN1-WT) in the RhoA/B/C FRET sensors; experiment: FRET or BRET; intramolecular single-chain sensor (PKN1 RBD, mVenus, Cerulean3, RhoGTPase); average basal YFP/CFP ratio in resting live primary human EC (HUVEC), 18 hours after microporation

Substance	basal YFP/CFP ratio
RhoA-Q63L in the RhoA FRET sensor (from UniProt P61586 1-193) (natural protein)	8.1
RhoB-G14V in the RhoB FRET sensor (from UniProt P62745 1-196) (natural protein)	6.5
RhoC-G14V in the RhoC FRET sensor (from UniProt P08134 1-193) (natural protein)	6.2
RhoC-Q63L in the RhoC FRET sensor (from UniProt P08134 1-193) (natural protein)	6.8

target: circularly permutated RBD of PKN1 (PKN1-WT) in the RhoA/B/C FRET sensors; experiment: FRET or BRET; intramolecular single-chain sensor (PKN1 RBD, mVenus, Cerulean3, RhoGTPase); normalized mean YFP/CFP ratio change of whole live HUVEC after Thrombin (1 U/ml) at t = 110 sec

Substance	mean maximal FRET ratio change after Thrombin
RhoA-WT in the RhoA FRET sensor (from UniProt P61586 1-193) (natural protein)	32%
RhoB-WT in the RhoB FRET sensor (from UniProt P62745 1-196) (natural protein)	122%
RhoC-WT in the RhoC FRET sensor (from UniProt P08134 1-193) (natural protein)	42%
